{"source": "paper PMC2682639", "origin": "cited, not measured here", "target": "Hint1 (Homo sapiens) (UniProt P49773)", "note": "pKd: −log10 of the molar value."}
{"substance": "Hint1 (from UniProt P49773)", "values": [{"measurement": "pKd", "result": "> 9.00"}]}
